From paper PMC8225996 (Frontiers in Cardiovascular Medicine, 2021)

Molecular target: T1, Angiotensin converting enzyme 2 (mouse (endogenous in primary brain …, UniProt Q8R0I0 18-805))
T1 construct: Angiotensin converting enzyme 2 (ACE2), type I membrane glycoprotein; endogenous in mouse brain microvascular endothelial cells; also called ACE2; ACE2 receptor; source: endogenous, mouse primary brain microvascular endothelial cells (C57BL/6 control; db/db diabetic), in lysate
Experiment: co-IP; ACE2 antibody (2 ug) with 150 ug lysate of control endothelial cells treated with Spike; Catch and Release spin columns, 18 h at 4 C; blots probed for Rab5a
Conditions: partners not purified

T1 sequence (Q8R0I0 18-805): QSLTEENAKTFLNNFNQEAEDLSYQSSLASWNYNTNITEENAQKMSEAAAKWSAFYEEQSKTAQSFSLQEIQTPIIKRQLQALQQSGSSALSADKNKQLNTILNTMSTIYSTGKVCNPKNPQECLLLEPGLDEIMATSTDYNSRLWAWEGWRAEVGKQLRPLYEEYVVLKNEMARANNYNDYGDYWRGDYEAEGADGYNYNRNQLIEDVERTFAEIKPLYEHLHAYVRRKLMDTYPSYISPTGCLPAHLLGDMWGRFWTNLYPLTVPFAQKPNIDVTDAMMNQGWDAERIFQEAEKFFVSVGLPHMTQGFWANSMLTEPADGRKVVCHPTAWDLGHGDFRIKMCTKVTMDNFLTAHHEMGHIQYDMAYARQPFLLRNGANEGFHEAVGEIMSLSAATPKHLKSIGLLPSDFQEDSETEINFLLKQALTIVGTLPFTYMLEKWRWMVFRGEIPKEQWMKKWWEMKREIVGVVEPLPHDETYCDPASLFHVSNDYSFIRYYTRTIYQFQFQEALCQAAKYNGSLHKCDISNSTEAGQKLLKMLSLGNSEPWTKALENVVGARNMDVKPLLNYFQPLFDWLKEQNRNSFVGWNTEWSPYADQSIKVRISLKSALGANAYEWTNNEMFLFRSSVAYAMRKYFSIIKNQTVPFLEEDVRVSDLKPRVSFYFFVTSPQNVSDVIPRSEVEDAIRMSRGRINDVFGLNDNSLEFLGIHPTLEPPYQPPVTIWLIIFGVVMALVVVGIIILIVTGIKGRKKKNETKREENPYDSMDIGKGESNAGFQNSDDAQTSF

B1: Rab5a (natural protein, UniProt Q9CQD1 1-215, looked up)
chain: MANRGATRPNGPNTGNKICQFKLVLLGESAVGKSSLVLRFVKGQFHEFQESTIGAAFLTQTVCLDDTTVKFEIWDTAGQERYHSLAPMYYRGAQAAIVVYDITNEESFARAKNWVKELQRQASPNIVIALSGNKADLANKRAVDFQEAQSYADDNSLLFMETSAKTSMNVNEIFMAIAKKLPKNEPQNPGANSARGRGVDLTEPAQPARSQCCSN
notes: Rab5a, Rab GTPase of the endolysosomal trafficking pathway; endogenous in mouse brain microvascular endothelial cells; source: endogenous, mouse primary brain microvascular endothelial cells (C57BL/6 control; db/db diabetic), in lysate
fold change of association with ACE2, Spike-treated against untreated cells: 2 fold
